Data from IntAct's records for PubMed 16600184.

B1: Phospholipid-transporting ATPase accessory subunit LEM3 (Saccharomyces cerevisiae), P42838 (parent)
chain: MVNFDLGQVGEVFRRKDKGAIVSGDNPEEEEDVDASEFEEDEVKPVRTKNRRPKEDAFTQQRLAAINPVLTPRTVLPLYLLIAVVFVIVGGCILAQNSKVDEVTIYYQDCMTNATSSWSDIPSEHWQFVFHKYKTYNTAPQWRFVDDESDDFTKQRGTCQIRFTTPSDMKNNVYLNYVLEKFAANHRRYVLSFSEDQIRGEDASYETVHDATGINCKPLSKNADGKIYYPCGLIANSMFNDTFPLQLTNVGDTSNNYSLTNKGINWESDKKRYKKTKYNYTQIAPPPYWEKMYPDGYNETNIPDIQDWEEFQNWMRPGAFDKITKLIRINKNDTLPAGEYQLDIGLHWPVLEFNGKKGIYLTHGSHLGGRNPFLGIVYLIGGCICAAMALILLTFWLFGGRKIADASSLSWNMK

Variants of: B1
Settings: with atc5_yeast DNF1, P32660
atc5_yeast DNF1, P32660, sequence (P32660 whole entry): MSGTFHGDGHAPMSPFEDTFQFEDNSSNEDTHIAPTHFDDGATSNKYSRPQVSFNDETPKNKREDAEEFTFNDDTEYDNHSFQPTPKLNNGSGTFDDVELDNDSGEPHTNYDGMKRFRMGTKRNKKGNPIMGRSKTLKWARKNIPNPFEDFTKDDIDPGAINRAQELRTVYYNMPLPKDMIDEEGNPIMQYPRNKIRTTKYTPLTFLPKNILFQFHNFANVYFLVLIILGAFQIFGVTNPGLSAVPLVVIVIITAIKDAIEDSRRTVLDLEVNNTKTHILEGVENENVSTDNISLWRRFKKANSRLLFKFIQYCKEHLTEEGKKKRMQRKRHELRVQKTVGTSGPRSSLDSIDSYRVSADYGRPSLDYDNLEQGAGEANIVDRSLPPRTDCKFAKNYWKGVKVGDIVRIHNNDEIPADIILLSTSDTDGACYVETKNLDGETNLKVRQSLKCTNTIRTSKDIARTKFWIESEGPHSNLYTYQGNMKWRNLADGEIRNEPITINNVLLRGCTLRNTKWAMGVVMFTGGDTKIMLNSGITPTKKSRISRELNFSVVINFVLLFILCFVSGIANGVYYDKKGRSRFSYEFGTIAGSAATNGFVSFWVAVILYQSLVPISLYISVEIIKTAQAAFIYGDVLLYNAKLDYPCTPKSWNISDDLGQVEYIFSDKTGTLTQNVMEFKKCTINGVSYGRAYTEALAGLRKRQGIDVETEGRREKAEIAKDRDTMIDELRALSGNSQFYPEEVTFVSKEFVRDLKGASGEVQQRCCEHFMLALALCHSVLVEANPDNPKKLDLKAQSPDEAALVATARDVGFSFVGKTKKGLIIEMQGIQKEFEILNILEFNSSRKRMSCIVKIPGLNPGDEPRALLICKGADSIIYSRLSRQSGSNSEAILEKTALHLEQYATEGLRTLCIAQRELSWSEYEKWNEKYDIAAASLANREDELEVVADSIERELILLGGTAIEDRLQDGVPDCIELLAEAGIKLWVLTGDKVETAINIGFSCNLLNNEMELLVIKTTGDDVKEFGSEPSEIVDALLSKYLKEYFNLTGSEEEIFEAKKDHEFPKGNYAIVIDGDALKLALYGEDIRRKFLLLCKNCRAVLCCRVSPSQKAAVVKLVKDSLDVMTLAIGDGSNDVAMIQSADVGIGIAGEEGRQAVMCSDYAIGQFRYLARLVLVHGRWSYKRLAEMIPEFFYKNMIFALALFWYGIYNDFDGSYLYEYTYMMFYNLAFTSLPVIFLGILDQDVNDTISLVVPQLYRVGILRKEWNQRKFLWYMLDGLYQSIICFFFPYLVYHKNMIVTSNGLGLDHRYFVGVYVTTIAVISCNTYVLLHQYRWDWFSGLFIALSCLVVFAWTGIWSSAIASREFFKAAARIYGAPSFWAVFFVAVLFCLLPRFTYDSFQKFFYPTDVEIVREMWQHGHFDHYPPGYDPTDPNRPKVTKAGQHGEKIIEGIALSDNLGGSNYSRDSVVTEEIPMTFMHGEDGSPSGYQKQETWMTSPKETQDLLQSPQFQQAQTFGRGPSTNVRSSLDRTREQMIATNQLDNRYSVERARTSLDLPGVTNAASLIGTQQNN

| effect of a mutation on the interaction | Variant |
| --- | --- |
| with no effect | R316W |

Variants of: B1
Settings: with atc4_yeast DNF2, Q12675
atc4_yeast DNF2, Q12675, sequence (Q12675 whole entry): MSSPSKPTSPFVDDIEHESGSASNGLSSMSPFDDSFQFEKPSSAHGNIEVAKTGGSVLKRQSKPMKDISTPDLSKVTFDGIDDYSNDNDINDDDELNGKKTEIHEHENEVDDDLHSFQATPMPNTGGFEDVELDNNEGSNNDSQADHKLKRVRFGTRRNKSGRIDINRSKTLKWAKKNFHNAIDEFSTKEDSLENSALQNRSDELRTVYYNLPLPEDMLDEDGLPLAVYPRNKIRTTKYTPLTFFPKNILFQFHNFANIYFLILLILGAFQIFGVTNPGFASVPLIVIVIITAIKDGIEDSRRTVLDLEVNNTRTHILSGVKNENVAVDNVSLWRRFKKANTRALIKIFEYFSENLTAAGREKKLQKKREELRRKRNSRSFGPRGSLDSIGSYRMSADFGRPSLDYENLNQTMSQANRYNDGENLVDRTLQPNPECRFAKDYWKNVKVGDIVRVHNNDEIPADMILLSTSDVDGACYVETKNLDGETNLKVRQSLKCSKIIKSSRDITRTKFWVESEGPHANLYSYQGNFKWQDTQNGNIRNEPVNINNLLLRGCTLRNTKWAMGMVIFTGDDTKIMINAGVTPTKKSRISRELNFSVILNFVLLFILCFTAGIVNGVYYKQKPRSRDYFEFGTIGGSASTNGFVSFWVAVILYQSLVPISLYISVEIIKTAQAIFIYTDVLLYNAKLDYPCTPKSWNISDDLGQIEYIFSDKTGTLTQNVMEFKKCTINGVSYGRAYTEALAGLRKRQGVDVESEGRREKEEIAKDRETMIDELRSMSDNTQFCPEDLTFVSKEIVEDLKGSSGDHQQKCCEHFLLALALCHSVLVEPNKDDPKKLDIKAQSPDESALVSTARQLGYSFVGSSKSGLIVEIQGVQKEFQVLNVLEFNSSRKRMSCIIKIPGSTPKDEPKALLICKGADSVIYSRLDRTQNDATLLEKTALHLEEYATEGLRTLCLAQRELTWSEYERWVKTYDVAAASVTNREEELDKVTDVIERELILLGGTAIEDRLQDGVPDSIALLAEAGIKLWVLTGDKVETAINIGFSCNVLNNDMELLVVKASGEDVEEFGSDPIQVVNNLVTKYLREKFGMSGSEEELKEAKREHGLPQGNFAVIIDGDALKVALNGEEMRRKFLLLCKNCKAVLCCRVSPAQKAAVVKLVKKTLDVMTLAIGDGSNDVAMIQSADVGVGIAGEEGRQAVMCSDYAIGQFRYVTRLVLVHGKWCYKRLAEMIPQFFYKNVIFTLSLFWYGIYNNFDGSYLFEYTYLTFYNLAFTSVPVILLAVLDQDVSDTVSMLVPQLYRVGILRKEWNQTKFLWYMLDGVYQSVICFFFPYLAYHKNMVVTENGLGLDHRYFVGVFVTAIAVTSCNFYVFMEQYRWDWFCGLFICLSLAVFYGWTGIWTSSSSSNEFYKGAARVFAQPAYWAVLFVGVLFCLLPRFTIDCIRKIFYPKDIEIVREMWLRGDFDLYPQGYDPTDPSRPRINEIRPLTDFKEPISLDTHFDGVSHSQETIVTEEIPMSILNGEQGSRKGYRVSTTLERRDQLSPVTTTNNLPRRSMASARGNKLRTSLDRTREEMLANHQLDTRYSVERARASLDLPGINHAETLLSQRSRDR

| effect of a mutation on the interaction | Variant |
| --- | --- |
| with no effect | R316W |
